The record followed here is patent US20190177419A1 (BERGEN TEKNOLOGIOVERFORING, published 2019).

The target of test [1] is T1, recombinant human Mer-Fc chimera (R&D Systems, Cat. no. 891-MR) (human, UniProt Q12866 21-505).
T1 construct: Bought reagent; also called rhMer-Fc; rhMer; not shown: Fc part (and any linker or tag) of the bought chimera; not described
T1 sequence: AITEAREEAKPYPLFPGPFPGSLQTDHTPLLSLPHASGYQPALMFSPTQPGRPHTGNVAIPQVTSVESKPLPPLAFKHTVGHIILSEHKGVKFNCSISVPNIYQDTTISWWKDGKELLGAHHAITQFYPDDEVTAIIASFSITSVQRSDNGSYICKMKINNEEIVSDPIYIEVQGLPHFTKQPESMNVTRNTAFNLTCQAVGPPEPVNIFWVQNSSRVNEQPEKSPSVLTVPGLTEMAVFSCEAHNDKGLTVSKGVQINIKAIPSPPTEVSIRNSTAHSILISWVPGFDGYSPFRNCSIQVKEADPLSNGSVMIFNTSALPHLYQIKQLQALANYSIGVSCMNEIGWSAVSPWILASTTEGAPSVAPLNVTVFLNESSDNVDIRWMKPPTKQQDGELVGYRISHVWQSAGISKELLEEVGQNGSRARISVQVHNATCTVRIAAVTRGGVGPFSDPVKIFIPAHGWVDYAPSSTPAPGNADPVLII
Description: SPR (Biacore 3000), rhMer-Fc immobilised on a CM5 chip, antibody injected for 3 min [panel 10C9]. As for the experimental part: (§1) All binding experiments were performed using Biacore 3000 instrument (GE Healthcare) at 25° C. Soluble recombinant antigens corresponding to the extracellular domains of members of the human TAM receptor family, Axl (rhAxl-Fc chimera; R&D Systems, Cat. no. 154-AL), Mer (rhMer-Fc chimera; R&D Systems, Cat. no. 891-MR) and Tyro3 (rhTyro3/Dtk-Fc chimera; R&D Systems, Cat. no. 859-DK) were immobilized on the surface of CM5 sensor chip using amine coupling at the surface density of 393.0, 303.6 and 364.0 resonance units (RU), respectively. The Biacore run was performed in an automatic mode using Binding to analysis wizard.
(In general: SPR reads the build-up and loss of mass on a sensor chip optically.)

The target in test [2] is T2, human Axl receptor on cells (Axl-positive MDA-MB-231 cells; HeLa cells; Axl+ cells) (human, UniProt P30530 26-894).
T2 construct: whole, on cells; Endogenous Axl of human cell lines; also called Axl-positive cells
Description: flow cytometry on MDA-MB-231 cells, detection with APC-conjugated donkey anti-mouse IgG (H+L) F(ab')2.

For test [3], the target named is T3, recombinant human Tyro3/Dtk-Fc chimera (R&D Systems, Cat. no. 859-DK) (human, UniProt Q06418 41-429).
T3 construct: Bought reagent; also called rhTyro3/Dtk-Fc; rhTyro3; not shown: Fc part (and any linker or tag) of the bought chimera; not described
T3 sequence: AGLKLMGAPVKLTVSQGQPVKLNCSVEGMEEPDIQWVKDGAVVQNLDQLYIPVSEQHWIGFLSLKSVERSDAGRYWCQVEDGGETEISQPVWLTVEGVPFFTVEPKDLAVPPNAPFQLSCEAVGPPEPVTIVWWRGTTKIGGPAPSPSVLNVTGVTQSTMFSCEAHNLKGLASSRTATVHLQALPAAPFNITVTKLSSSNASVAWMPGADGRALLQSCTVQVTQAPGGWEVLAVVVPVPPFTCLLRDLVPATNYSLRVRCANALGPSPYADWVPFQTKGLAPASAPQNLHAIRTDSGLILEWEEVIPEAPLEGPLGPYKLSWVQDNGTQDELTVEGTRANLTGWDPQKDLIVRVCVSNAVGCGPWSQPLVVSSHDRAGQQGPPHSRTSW
The test is described as follows: SPR (Biacore 3000), rhTyro3/Dtk-Fc immobilised on a CM5 chip, antibody injected for 3 min [panel 10C9]. As for the experimental part: as §1

For test [4], the target named is T4, recombinant cyno-Axl-Fc (extracellular domain of cynomolgus monkey Axl fused to human Fc) (cynomolgus monkey (Macaca fascicularis), UniProt P30530 26-451 (human entry)).
T4 construct: also called Axl from cynomolgus monkey; not shown: human Fc
T4 chain: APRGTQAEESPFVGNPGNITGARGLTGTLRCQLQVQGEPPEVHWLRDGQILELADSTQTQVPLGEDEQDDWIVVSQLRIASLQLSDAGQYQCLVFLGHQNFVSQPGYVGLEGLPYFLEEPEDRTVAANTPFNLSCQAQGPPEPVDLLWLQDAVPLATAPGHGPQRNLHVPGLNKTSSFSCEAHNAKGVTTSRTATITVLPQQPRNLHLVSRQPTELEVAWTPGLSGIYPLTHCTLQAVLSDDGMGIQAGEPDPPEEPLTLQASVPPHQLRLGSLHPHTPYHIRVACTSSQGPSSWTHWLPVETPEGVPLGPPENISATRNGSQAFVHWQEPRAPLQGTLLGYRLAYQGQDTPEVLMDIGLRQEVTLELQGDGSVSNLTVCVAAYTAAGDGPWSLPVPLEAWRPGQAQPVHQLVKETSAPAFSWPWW
Description: SPR (Biacore 3000), cyno-Axl-Fc immobilised on a CM5 chip, antibody injected at 10 µg/mL for 3 min, 5 min dissociation [panel 10C9]. The protocol: (§2) The sequence of Axl receptor from cynomolgus monkey (Macace fascicularis; SEQ ID NO.43) was retrieved from WO2009062690A1. Based on the sequence, recombinant extracellular domain of cyno-Axl was generated by transient expression in CHO cells as a fusion protein with human Fc. […] The binding experiments were performed using Biacore 3000 instrument (GE Healthcare) at 25° C. […] The Biacore runs were performed in an automatic mode using Binding analysis wizard.

In test [5] the target is T5, recombinant human Axl-Fc chimera (R&D Systems, Cat. no. 154-AL) (human, UniProt P30530 26-451).
T5 construct: extracellular domain; Bought reagent; also called rhAxl-Fc; rhAxl; not shown: Fc part (and any linker or tag) of the bought chimera; not described
Description: SPR, Biacore 3000, 25 C, rhAxl-Fc immobilised on CM5 (190 RU); half-life of the complex as ln2/koff. As for the experimental part: (§3) The precise kinetic analysis was performed using BIA evaluation software and curve fitting according to 1:1 Langmuir binding model.

The target in test [6] is T5, recombinant human Axl-Fc chimera (R&D …). Description: SPR, Biacore 3000, 25 C, rhAxl-Fc immobilised on CM5 (190 RU), antibody injected, 1:1 Langmuir model. As for the experimental part: as §3
Test [7] deals with T6, recombinant mouse Axl-Fc chimera (R&D Systems, Cat. no. 854-AX) (mouse, UniProt Q00993 19-445).
T6 construct: Bought soluble reagent; also called rmAxl-Fc; rmAxl; not shown: Fc part (and any linker or tag) of the bought chimera; not described
The test is described as follows: SPR (Biacore 3000), rmAxl-Fc immobilised on a CM5 chip, antibody injected for 3 min [panel 10C9]. As for the experimental part: (§4) The binding experiments were performed using Biacore 3000 instrument (GE Healthcare) at 25° C. The soluble recombinant antigens corresponding to human Axl (rhAxl-Fc chimera; R&D Systems, Cat. no. 154-AL), mouse Axl (rmAxl-Fc chimera; R&D Systems, R&D Systems; Cat. no. 854-AX) and human Tyro3 (rhTyro3/Dtk-Fc chimera; R&D Systems, Cat. no. 859-DK) were immobilized on the surface of CM5 sensor chip using amine coupling at the surface density of 1,308.0, 2,115.9 and 1,429.0 RU, respectively. The Biacore runs were performed in an automatic mode using Binding analysis wizard.

The target of test [8] is T2, human Axl receptor on cells …. Description: flow cytometry on MDA-MB-231 cells, detection with APC-conjugated donkey anti-human IgG (H+L) F(ab')2. The protocol: The cell staining was measured using Accuri C6 flow cytometer (BD Biosciences). MFI, geometric mean fluorescence intensity.
For flow cytometry, the adherent cells in culture were washed with PBS, detached by treatment with trypsin (0.25%) for 1 min and hitting culture dish for full detachment. Trypsin was quenched by adding into the tissue flask the complete medium followed by washing the cells with PBS. During the washing steps, the cells were collected by centrifugation at 200 g for 5 min. The antibody was diluted for total concentration in PBS containing 0.02% bovine serum albumin (BSA). Cell staining was performed using 200 μL of cell suspension comprising 10⁵ cells for 20 min at room temperature. The cell-bound antibodies were detected with APC-conjugated donkey anti-human or anti-mouse, respectively, IgG (H+L) F(ab′)₂ fragments (Jackson ImmunoResearch). After two washing steps with PBS/0.02% BSA, the cells were resuspended in 200 μL and kept on ice before analysis on Accuri C6 flow cytometer (BD Biosciences).

The target in test [9] is T3, recombinant human Tyro3/Dtk-Fc chimera …. Description: SPR (Biacore 3000), rhTyro3/Dtk-Fc immobilised on a CM5 chip, antibody injected for 3 min [panel 10G5]. The protocol: as §1
Test [10] has as its target T6, recombinant mouse Axl-Fc chimera (R&D …). The test is described as follows: SPR (Biacore 3000), rmAxl-Fc immobilised on a CM5 chip, antibody injected for 3 min [panel 10G5]. The protocol:
as §4

In test [11] the target is T1, recombinant human Mer-Fc chimera (R&D …). Description: SPR (Biacore 3000), rhMer-Fc immobilised on a CM5 chip, antibody injected for 3 min [panel 10G5]. As for the experimental part:
as §1

Test [12] concerns the target T4, recombinant cyno-Axl-Fc (extracellular …). Description: SPR (Biacore 3000), cyno-Axl-Fc immobilised on a CM5 chip, antibody injected at 10 µg/mL for 3 min, 5 min dissociation [panel 10G5]. The protocol: as §2

T6 sequence (Q00993 other isoform, or with tags, fused parts or gaps mutant): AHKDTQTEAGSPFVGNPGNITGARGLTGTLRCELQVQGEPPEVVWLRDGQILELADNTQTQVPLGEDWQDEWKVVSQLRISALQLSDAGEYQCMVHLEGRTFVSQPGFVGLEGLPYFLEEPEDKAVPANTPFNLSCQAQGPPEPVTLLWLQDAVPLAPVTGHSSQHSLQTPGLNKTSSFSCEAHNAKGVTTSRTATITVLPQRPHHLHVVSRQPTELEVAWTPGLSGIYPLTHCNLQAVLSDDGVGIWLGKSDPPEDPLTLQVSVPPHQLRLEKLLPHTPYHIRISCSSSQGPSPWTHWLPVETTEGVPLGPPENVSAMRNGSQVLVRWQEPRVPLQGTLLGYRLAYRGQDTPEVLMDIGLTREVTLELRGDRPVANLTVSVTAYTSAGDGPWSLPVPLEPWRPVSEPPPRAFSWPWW

B1: mouse monoclonal antibody 10C9 (from hybridoma UT-10C9-B9) (antibody, IgG2b, V domains shown)
VH: QVQLQQPGPELVKPGASVKISCKTSDYNFTRYYIHWVKQRPGQGLEWIGWIYPGTGDSKYNEKFKGRATLTADTSSSTAYMQLSSQTSEDSAVYFCARNGNYWYFDVWGAGTAVTVSS
VL: DIVMTQAAPSGPVTPGESVSISCRSSKSLLHSNGNTYLYWFLQRPGQSPQLLIYRMSNLASGVPDRFSGSGSGTAFTLRISRVEAEDVGIYYCMQHREYPFTFGGGTKLEIK
notes: Whole mouse antibody purified from hybridoma supernatant; Possible N-glycosylation site (NFT) in CDR-H1; also called MAb 10C9
Usually EC50 (read off the curve) stands for the concentration giving half of the maximal effect. By Kd is commonly meant the concentration at which binding is half-saturated. For orientation: koff means the first-order rate constant of dissociation. In general, kon refers to the second-order rate constant of association. For B1, the binding result is reported as “no binding (tested: 10 µg/mL)” in test [1], “no binding (tested: 10 µg/mL)” in test [3], “binds” in [4] and “no binding (tested: 10 µg/mL)” in [7]. Further, in test [2], the “EC50 (read off the curve)” value is around 0.2 nM. For the same molecule, the “Half-life (t1/2)” value in test [5] was 40 min. For the same molecule, in test [6], the Kd is 0.18 nM. Further, the koff in [6] is 0.000289 s⁻¹. Besides, in test [6], the kon came to 1.61e+06 M⁻¹ s⁻¹.

B2: chimeric (mouse variable/human constant) IgG1 antibody c10C9 (antibody, V domains shown)
VH: QVQLQQPGPELVKPGASVKISCKTSDYNFTRYYIHWVKQRPGQGLEWIGWIYPGTGDSKYNEKFKGRATLTADTSSSTAYMQLSSQTSEDSAVYFCARNGNYWYFDVWGAGTAVTVSS
VL: DIVMTQAAPSGPVTPGESVSISCRSSKSLLHSNGNTYLYWFLQRPGQSPQLLIYRMSNLASGVPDRFSGSGSGTAFTLRISRVEAEDVGIYYCMQHREYPFTFGGGTKLEIK
notes: 10C9 VH and VL joined in frame to human IgG1 and C-kappa constant domains, made in CHO cells; also called chimeric 10C9; not shown: constant domains of the human IgG1 heavy chain; constant domain of the human light (C-kappa) chain
With B2, in [5], the “Half-life (t1/2)” value turned out to be 52.8 min. Moreover, in [6], the Kd was found to be 0.102 nM, the koff is 0.000219 s⁻¹ and the kon turned out to be 2.16e+06 M⁻¹ s⁻¹. Further, the “EC50 (read off the curve)” value in [8] is around 0.2 nM.

B3: mouse monoclonal antibody 10G5 (from hybridoma WR-10G5-E5) (antibody, IgG1, V domains shown)
VH: QVQLQQSGAELVRPGASVKLSCKASGYSFTDFYINWVRQRPGQGLEWIARIFPGGDNTYYNEKFKGKATLTAEESSSTAYIQLSSLTSEDSAVYFCARRGLYYAMDYWGQGISVTVSS
VL: DVLMTQTPLSLPVSLGDQASISCRSSQSLVHSNGIPYLHWYLQKPGQSPKLLIYRVSNRFSGVPDRFSGSGSGTDFTLKISRVEAEDLGVYFCSQGTHVPPTFGGGTKLEIK
notes: Whole mouse antibody purified from hybridoma supernatant; also called MAb 10G5
Take B3: the binding result in test [9] is reported as “no binding (tested: 10 µg/mL)”; in test [10], “no binding (tested: 10 µg/mL)”; in test [11] it was “no binding (tested: 10 µg/mL)”; in test [12] it was “binds”. Moreover, the “Half-life (t1/2)” value in [5] is 26.3 min. Also, the Kd in [6] came to 0.53 nM. Moreover, the koff in [6] stood at 0.000439 s⁻¹. Also, in test [6], the kon came to 829000 M⁻¹ s⁻¹.

B4: chimeric (mouse variable/human constant) IgG1 antibody c10G5 (antibody, V domains shown)
VH: QVQLQQSGAELVRPGASVKLSCKASGYSFTDFYINWVRQRPGQGLEWIARIFPGGDNTYYNEKFKGKATLTAEESSSTAYIQLSSLTSEDSAVYFCARRGLYYAMDYWGQGISVTVSS
VL: DVLMTQTPLSLPVSLGDQASISCRSSQSLVHSNGIPYLHWYLQKPGQSPKLLIYRVSNRFSGVPDRFSGSGSGTDFTLKISRVEAEDLGVYFCSQGTHVPPTFGGGTKLEIK
notes: 10G5 VH and VL joined in frame to human IgG1 and C-kappa constant domains, made in CHO cells; also called chimeric 10G5; not shown: constant domains of the human IgG1 heavy chain; constant domain of the human light (C-kappa) chain
Turning to B4, the “Half-life (t1/2)” value in [5] is 68.4 min. In [6], the Kd was determined as 0.103 nM, the koff was found to be 0.000169 s⁻¹ and the kon came to 1.64e+06 M⁻¹ s⁻¹. Besides, the “EC50 (read off the curve)” value in [8] is around 0.2 nM.
